{
  "source": "paper PMC10602967",
  "about": "“Modulatory role of RNA helicases in MBNL-dependent alternative splicing regulation”",
  "key": {"rDDX5 [1]": {"molecular_target": "T1, rDDX5 (UniProt P17844 1-614)", "T1 sequence (P17844 whole entry)": "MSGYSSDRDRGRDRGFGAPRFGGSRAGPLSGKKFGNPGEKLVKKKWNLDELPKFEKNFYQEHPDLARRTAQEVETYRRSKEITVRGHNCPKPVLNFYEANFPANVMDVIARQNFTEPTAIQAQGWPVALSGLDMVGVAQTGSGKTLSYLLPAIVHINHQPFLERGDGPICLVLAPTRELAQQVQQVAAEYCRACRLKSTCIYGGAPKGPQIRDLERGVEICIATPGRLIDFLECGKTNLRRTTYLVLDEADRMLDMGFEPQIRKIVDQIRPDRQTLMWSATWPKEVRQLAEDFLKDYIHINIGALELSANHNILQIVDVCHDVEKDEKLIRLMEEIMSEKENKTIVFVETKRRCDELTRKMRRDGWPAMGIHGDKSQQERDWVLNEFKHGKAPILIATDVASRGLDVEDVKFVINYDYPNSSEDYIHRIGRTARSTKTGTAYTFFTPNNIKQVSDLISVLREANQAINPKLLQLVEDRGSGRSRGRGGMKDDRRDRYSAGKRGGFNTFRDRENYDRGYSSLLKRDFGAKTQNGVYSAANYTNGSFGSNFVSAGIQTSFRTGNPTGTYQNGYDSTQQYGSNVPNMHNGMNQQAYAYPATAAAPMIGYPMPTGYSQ", "test": "EMSA; slightly lower preference than ss(UGCU)4; no defined complex band; Kd only in figure; EMSA: 15 nM RNA, 50 mM NaCl, 50 mM KCl, 50 mM Tris-HCl, 1 mM MgCl2 (pH not stated), 37 C 15 min, 10 ul, 6% native PA gel; Kd by one-site fit with Bmax = 100", "details": "protein: commercial; label: 5'-biotin; 3'-Cyanine 5; single-stranded"}, "rDDX5 [2]": {"molecular_target": "T1, rDDX5", "test": "EMSA; slightly preferred over RNA-ctrl; no defined complex band; Kd only in figure; EMSA: 15 nM RNA, 50 mM NaCl, 50 mM KCl, 50 mM Tris-HCl, 1 mM MgCl2 (pH not stated), 37 C 15 min, 10 ul, 6% native PA gel; Kd by one-site fit with Bmax = 100", "details": "protein: commercial; label: 5'-biotin; 3'-Cyanine 5; single-stranded"}},
  "data": [
    {"binder": "UUUUUUUUGUCUGGUCCCUCGUUUUUUUU (ssRNA)", "note": "[RNA-ctrl]", "values": [
      {"measurement": "binding result", "setting": "rDDX5 [1]", "result": "binds"}
    ]},
    {"binder": "UUUUUUUUGCUUGCUUGCUUGCUUUUUUUU (ssRNA)", "note": "[RNA-ss(UGCU)4]", "values": [
      {"measurement": "binding result", "setting": "rDDX5 [2]", "result": "binds"}
    ]}
  ]
}
